For 1 substance, stoichiometry N results are on record in publication doi:10.1101/2025.02.18.638599.

The target in the experiment is AcrA S273C (Escherichia coli) (UniProt P0AE06). Nature of the experiment: cryo-EM structure.

For the substance “AcrA S273C (from UniProt P0AE06 25-397) (natural protein)”, the stoichiometry N was 6.

A word on the stoichiometry N: it is a count of units in the complex or per binding partner.
